Here are results for one molecule from publication PMC10628450 (2023).

Test [1] has as its target T1, FcRn-His6 (UniProt P55899 24-365). The experiment in a line: BLI; pH 6.
The target in test [2] is T1, FcRn-His6. The experiment in a line: BLI; pH 6. The source holds these as a separate data set. On the technique in general: BLI is a label-free optical method that tracks binding on a fibre tip over time.

T1 sequence (P55899 24-297, chain 1 of 2): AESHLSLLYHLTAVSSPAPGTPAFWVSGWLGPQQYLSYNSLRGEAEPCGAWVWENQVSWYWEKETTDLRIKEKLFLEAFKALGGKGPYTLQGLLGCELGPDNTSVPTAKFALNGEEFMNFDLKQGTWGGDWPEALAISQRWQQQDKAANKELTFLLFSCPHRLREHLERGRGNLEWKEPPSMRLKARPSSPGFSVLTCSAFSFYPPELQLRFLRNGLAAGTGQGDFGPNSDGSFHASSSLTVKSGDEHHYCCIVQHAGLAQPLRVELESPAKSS
T1 sequence (chain, as listed by the source, chain 2 of 2): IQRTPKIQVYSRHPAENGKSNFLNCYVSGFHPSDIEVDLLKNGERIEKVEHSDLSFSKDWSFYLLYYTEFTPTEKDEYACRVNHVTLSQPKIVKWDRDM

B1: Anti-NKp46 IgG (antibody)
chain 1: QVQLVQSGAEVKKPGSSVKVSCKASGYTFSDYVINWVRQAPGQGLEWMGEIYPGSGTNYYNEKFKAKATITADKSTSTAYMELSSLRSEDTAVYYCARRGRYGLYAMDYWGQGTTVTVSS
chain 2: DIQMTQSPSSLSASVGDRVTITCRASQDISNYLNWYQQKPGKAPKLLIYYTSRLHSGVPSRFSGSGSGTDFTFTISSLQPEDIATYFCQQGNTRPWTFGGGTKVEIK
modifications: In-house soluble FcRn-His6, tag omitted; ectodomain limits from UniProt topology; beta-2-microglobulin is not named in the paper and is added by convention as the obligate light chain; check residues are not from the paper; N-glycosylated
The term koff denotes the first-order rate constant of dissociation. A word on the Kd: it is the equilibrium constant for the complex coming apart. Low values mean higher affinity, high ones lower affinity. In turn, B1 returned a koff in the test with FcRn-His6 [1] of 0.0685 s⁻¹. In the test with FcRn-His6 [2], the equilibrium dissociation constant (Kd) came to 361 nM.
